Reference: patent publication US20240025993A1, “CD19 BINDING MOLECULES AND USES THEREOF” (NOVARTIS AG, priority 2020, published 2024)

biological target: CD3-Fc; experiment: SPR (Biacore T200, 25 C), CD3-Fc captured on anti-hFc CM5 chip, antibody as analyte, 1:1 model

| Kd [µM] | Binder |
| --- | --- |
| 0.016 | anti-CD3 antibody designated as CD3hi (antibody, V domains shown) VH: EVQLVESGGGLVQPGGSLKLSCAASGFTFNTYAMNWVRQASGKGLEWVGRIRSKYNNYATYYADSVKDRFTISRDDSKSTLYLQMNSLKTEDTAVYYCVRHGNFGNSYVSWFAYWGQGTLVTVSS VL: QAVVTQEPSLTVSPGGTVTLTCRSSTGAVTTSNYANWVQQKPGQAPRGLIGGTNKRAPWTPARFSGSLLGDKAALTLSGAQPEDEAEYFCALWYSNLWVFGGGTKLTVL |
| 0.048 | anti-CD3 antibody designated as CD3lo (antibody, V domains shown) VH: EVQLVESGGGLVQPGGSLKLSCAASGFTFNTYAMNWVRQASGKGLEWVGRIRSKYNNYATYYADSVKDRFTISRDDSKSTAYLQMNSLKTEDTAVYYCVRHGNFGNSYVSWFAYWGQGTLVTVSS VL: QAVVTQEPSLTVSPGGTVTLTCRSSTGAVTTSNYANWVQQKPGQAPRGLIGGTNKRAPWTPARFSGSLLGDKAALTLSGAQPEDEAEYFCALWYSNLWVFGGGTKLTVL |
| 0.03 | anti-CD3 antibody designated as CD3med (antibody, V domains shown) VH: EVQLVESGGGLVQPGGSLKLSCAASGFTFNTYAMNWVRQASGKGLEWVGRIRSKYNNYATYYADSVKDRFTISRDDSKNTAYLQMNSLKTEDTAVYYCVRHGNFGNSYVSWFAHWGQGTLVTVSS VL: QAVVTQEPSLTVSPGGTVTLTCGSSTGAVTSSNYANWVQQKPGQAPRGLIGGTNKRAPWTPARFSGSLLGGKAALTLSGAQPEDEAEYYCALWYSNLWVFGGGTKLTVL |
